Experiment [1] has as its target hen egg lysozyme (hen) (UniProt P00698). Description: ELISA on HEL-coated plate, detection via myc tag (9e10) and anti mouse IgG-HRP. On the technique in general: In an ELISA, binding on a coated surface is turned into a signal by an enzyme label.
The target of experiment [2] is human TNFR1 on HeLa cells (human) (UniProt P19438). Description: cell-based or functional assay.
human TNFR1 on HeLa cells (human), sequence (P19438 30-455): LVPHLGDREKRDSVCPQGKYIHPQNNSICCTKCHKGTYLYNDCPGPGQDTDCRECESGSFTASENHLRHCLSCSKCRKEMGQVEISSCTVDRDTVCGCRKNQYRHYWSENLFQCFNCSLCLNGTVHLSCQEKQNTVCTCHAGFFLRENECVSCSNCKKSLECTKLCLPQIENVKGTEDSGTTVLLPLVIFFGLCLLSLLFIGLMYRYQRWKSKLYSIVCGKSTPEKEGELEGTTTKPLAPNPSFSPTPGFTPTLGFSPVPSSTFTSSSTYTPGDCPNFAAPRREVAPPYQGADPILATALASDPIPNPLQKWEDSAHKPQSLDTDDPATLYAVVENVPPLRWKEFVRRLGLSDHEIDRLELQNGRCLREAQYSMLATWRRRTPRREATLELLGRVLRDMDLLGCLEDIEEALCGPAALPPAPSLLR

hen egg lysozyme (hen), sequence (P00698 19-147): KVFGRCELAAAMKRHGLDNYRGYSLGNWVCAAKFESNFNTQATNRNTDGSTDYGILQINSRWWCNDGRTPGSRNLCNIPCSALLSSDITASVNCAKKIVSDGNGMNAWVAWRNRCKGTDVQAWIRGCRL

B1: VH CH/VH CK dual specific Fab like fragment (HEL4 CH / TAR2-5 CK) (bispecific antibody, from a related filing, V domains shown)
V domain 1: EVQLLESGGGLVQPGGSLRLSCAASGFRISDEDMGWVRQAPGKGLEWVSSIYGPSGSTYYADSVKGRFTISRDNSKNTLYLQMNSLRAEDTAVYYCASALEPLSEPLGFWGQGTLVTVSS
V domain 2: EVQLLESGGGLVQPGGSLRLSCAASGFTFDLYNMFWVRQAPGKGLEWVSFISQTGRLTWYADSVKGRFTISRDNSKNTLYLQMNSLRAEDTAVYYCAKTLEDFDYWGQGTLVTVSS
modifications: left off: a dimerising Fc or GST; small tags and cut ends
On to B1, for which, in experiment [1], the ELISA signal stood at 0.154.

B2: TAR2h-10-55 (protein)
chain: EVQLLESGGGLVQPGGSLRLSCAASGFPFEWYWMGWVRQAPGKGLEWVSAISGSGDSTYYADSVKGRFTISRDNSKNTLYQQMNSLRAEDAAVYYCAKVKLGGGPNFGYRGQGTLVTVSS
The molecule B2 gave a HeLa IL-8 Cell Assay, Activity (IC50) in experiment [2] of 20 nM.

The values above are taken from patent US20060002935A1.
